Test system: blue pigment (indigo/indirubin) production
Settings: 2-liter flask containing 300 ml of TB medium for the triple mutant

B1: WT: wild-type cytochrome P450 monooxygenase BM-3 from Bacillus megaterium (SEQ ID NO:2) (protein, listed as Bacillus megaterium)
chain: TIKEMPQPKTFGELKNLPLLNTDKPVQALMKIADELGEIFKFEAPGRVTRYLSSQRLIKEACDESRFDKNLSQALKFVRDFAGDGLFTSWTHEKNWKKAHNILLPSFSQQAMKGYHAMMVDIAVQLVQKWERLNADEHIEVPEDMTRLTLDTIGLCGFNYRFNSFYRDQPHPFITSMVRALDEAMNKLQRANPDDPAYDENKRQFQEDIKVMNDLVDKIIADRKASGEQSDDLLTHMLNGKDPETGEPLDDENIRYQIITFLIAGHETTSGLLSFALYFLVKNPHVLQKAAEEAARVLVDPVPSYKQVKQLKYVGMVLNEALRLWPTAPAFSLYAKEDTVLGGEYPLEKGDELMVLIPQLHRDKTIWGDDVEEFRPERFENPSAIPQHAFKPFGNGQRACIGQQFALHEATLVLGMMLKHFDFEDHTNYELDIKETLTLKPEGFVVKAKSKKIPLGGIPSPSTEQSAKKVRKKAENAHNTPLLVLYGSNMGTAEGTARDLADIAMSKGFAPQVATLDSHAGNLPREGAVLIVTASYNGHPPDNAKQFVDWLDQASADEVKGVRYSVFGCGDKNWATTYQKVPAFIDETLAAKGAENIADRGEADASDDFEGTYEEWREHMWSDVAAYFNLDIENSEDNKSTLSLQFVDSAADMPLAKMHGAFSTNVVASKELQQPGSARSTRHLEIELPKEASYQEGDHLGVIPRNYEGIVNRVTARFGLDASQQIRLEAEEEKLAHLPLAKTVSVEELLQYVELQDPVTRTQLRAMAAKTVCPPHKVELEALLEKQAYKEQVLAKRLTMLELLEKYPACEMKFSEFIALLPSIRPRYYSISSSPRVDEKQASITVSVVSGEAWSGYGEYKGIASNYLAELQEGDTITCFISTPQSEFTLPKDPETPLIMVGPGTGVAPFRGFVQARKQLKEQGQSLGEAHLYFGCRSPHEDYLYQEELENAQSEGIITLHTAFSRMPNQPKTYVQHVMEQDGKKLIELLDQGAHFYICGDGSQMAPAVEATLMKSYADVHQVSEADARLWLQQLEEKGRYAKDVWAG
- blue pigment production in culture: does not have the ability to produce the blue indigo-containing pigment
